Residue numbers refer to the chain shown, from its start. Like-named read-outs stand apart in the source and are kept apart here. Each block holds one binder with its values, some of them ahead of it.
Experiments:
human CLDN2 = molecular target: T1, human CLDN2 (human, UniProt P57739 1-230); assay: FACS on HEK293 cells transiently expressing human CLDN2
T1 construct: whole, on cells; also called hCLDN2
T1 sequence (looked up): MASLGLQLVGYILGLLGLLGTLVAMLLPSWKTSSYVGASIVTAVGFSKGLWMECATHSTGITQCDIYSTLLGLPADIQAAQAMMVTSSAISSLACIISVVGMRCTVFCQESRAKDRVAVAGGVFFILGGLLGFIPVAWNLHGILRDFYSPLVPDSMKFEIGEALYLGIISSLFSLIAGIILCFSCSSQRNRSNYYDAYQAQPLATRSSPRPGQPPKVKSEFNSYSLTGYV
Procedure: Antibodies were assayed for binding affinity to human CLDN18.2 paralogous proteins by FACS (ACEA NovoCyte). CLDN1, CLDN2, CLDN3, CLDN4, CLDN6 and CLDN9 genes of the human CLDN18.2 paralogous family were transiently transfected into HEK293 cells. […] The cell density was adjusted to 10⁶ cells/mL, and 50 μL of the cell suspension was added to each well of a 96-well plate. An antibody was diluted to 60 nM with FACS buffer, and 50 μL of the antibody dilution was added to each well of the 96-well plate. After 2 h of incubation at 4° C., the plate was washed twice with FACS buffer. Then, an FACS buffer containing a secondary antibody was added. After 1 h of incubation at 4° C., the plate was washed twice with FACS buffer. The cells were resuspended in fixative solution, and run FACS.

[1] = molecular target: CLDN18.2 of SNU620 cells (methionine to leucine at amino acid 149) (human, UniProt P56856-2 1-261); assay: cell-based or functional assay
human CLDN18.2 [2] = molecular target: human CLDN18.2 (human); assay: cell-based or functional assay
human CLDN18.2 [3] = molecular target: T2, human CLDN18.2 (human); assay: FACS on NUGC4_D8 cells
T2 construct: the HEK293 line was made with a GenScript plasmid; also called hCLDN18.2

human CLDN18.2 [4] = molecular target: T2, human CLDN18.2; assay: competition FACS on HEK293/hCLDN18.2 cells; competitor 10 nM biotinylated PR000400
Procedure: This example is to study the binding of anti-human CLDN18.2 bispecific antibodies to the epitope region of a human CLDN18.2 antigen. Competitive binding experiments were performed at the cellular level using human CLDN18.2-overexpressing HEK293/hCLDN18.2 cells. […] The mixture was well mixed and incubated at 4° C. for 30 min. 25 μL of the corresponding serially diluted non-biotinylated anti-human CLDN18.2 antibody was added. The mixture was well mixed and incubated at 4° C. for 1 h. The cells in each well were washed twice with 200 μL of pre-cooled FACS buffer (2% BSA in DPBS) and centrifuged at 500 g at 4° C. for 5 min, and then the supernatant was discarded. A fluorescent secondary antibody (Jackson ImmunoResearch, 016-540-084, 1:500) was added. The mixture was incubated at 4° C. in the absence of light for 1 h. The cells in each well were washed twice with 200 μL of pre-cooled FACS buffer (2% BSA in DPBS) and centrifuged at 500 g at 4° C. for 5 min, and then the supernatant was discarded. Finally, the cells in each well were resuspended in 200 μL of pre-cooled FACS buffer, and the fluorescence signal values were read using a ACEA_NovoCyte.

Human CD16a(V) = Human CD16a(V) (human, UniProt P08637 17-208); assay: BLI (Octet), antibody on FAB2G sensor, steady state fit
Procedure: (§1) The binding kinetics between proteins and antibodies was analyzed by the Biolayer Interferometry (BLI) technique using an Octet Red 96e (Fortebio) system. The rotation speed was set at 1000 rpm for the system. […] After equilibrated in the buffer for 120 s, the FAB2G sensor was allowed to bind to 2-fold serially diluted human Fc receptor protein. Finally, the FAB2G sensor was immersed in a 10 mM glycine-hydrochloric acid solution at pH 1.5 for regeneration to elute the proteins bound to the sensor. The affinity assays of antibodies for FcRn were performed under the conditions of both pH 6.0 buffer and pH 7.4 buffer. […] For the interactions of fast binding and fast dissociation, the “steady state” method was selected to fit the data to obtain KD(M) values.

human CLDN18.2 [5] = molecular target: T2, human CLDN18.2; assay: FACS on HEK293/hCLDN18.2 cells
Human CD64 = molecular target: T3, Human CD64 (human, UniProt P12314 16-288, limits assumed); assay: BLI (Octet), antibody on FAB2G sensor, 1:1 global fit
T3 construct: bought recombinant protein
Procedure: as §1

Human CD32a(H) = molecular target: T4, Human CD32a(H) (human, UniProt P12318 36-218, limits assumed); assay: BLI (Octet), antibody on FAB2G sensor
T4 sequence (looked up): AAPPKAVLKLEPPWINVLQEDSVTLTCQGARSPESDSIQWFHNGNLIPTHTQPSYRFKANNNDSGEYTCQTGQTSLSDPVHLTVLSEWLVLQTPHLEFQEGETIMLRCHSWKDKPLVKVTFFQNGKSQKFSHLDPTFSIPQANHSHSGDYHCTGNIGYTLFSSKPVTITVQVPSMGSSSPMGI
Procedure: as §1

Human CD32b = molecular target: T5, Human CD32b (human, UniProt P31994 46-217, limits assumed); assay: BLI (Octet), antibody on FAB2G sensor
T5 sequence (looked up): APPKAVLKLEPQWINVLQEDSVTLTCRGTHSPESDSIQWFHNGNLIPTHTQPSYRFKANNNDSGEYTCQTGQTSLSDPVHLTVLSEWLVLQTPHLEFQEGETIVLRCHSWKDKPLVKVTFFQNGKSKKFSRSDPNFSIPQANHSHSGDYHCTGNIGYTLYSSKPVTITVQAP
Procedure: as §1

Human CD16a(F) = Human CD16a(F) (human, UniProt P08637 17-208); assay: BLI (Octet), antibody on FAB2G sensor
Procedure: as §1

Human FcRn = Human FcRn (human, UniProt P55899 24-297; P61769 21-119); assay: BLI (Octet), antibody on FAB2G sensor, pH 6.0, 1:1 global fit; pH 6.0; 400-25 nM
Procedure: as §1

[6] = molecular target: T6, human CD3 on Jurkat cells (human, UniProt P07766 23-207); assay: FACS on Jurkat cells (CD3)
T6 construct: whole, on cells; on cells it stands in the whole CD3/TCR complex; also called CD3-expressing cells
Procedure: (§2) Antibodies were assayed for binding affinity by FACS. Test cells include HEK293/hCLDN18.2, HEK293/hCLDN18.1, NUGC4_D8 and Jurkat cells. […] The cell density was adjusted to 10⁶ cells/mL, and 50 μL of the cell suspension was added to each well of a 96-well plate. Antibodies were diluted to different concentrations with FACS buffer, and 50 μL of the antibody dilution was added to each well of the 96-well plate. After 2 h of incubation at 4° C., the plate was washed twice with FACS buffer. […] After 1 h of incubation at 4° C., the plate was washed twice with FACS buffer. The cells were resuspended in fixative solution, and then the fluorescence of the cells was monitored using an FACS instrument (ACEA NovoCyte).

human CLDN18.2 [7] = molecular target: T2, human CLDN18.2; assay: competition FACS on HEK293/hCLDN18.2 cells; competitor 200 nM biotinylated PR004549
[8] = molecular target: T6, human CD3 on Jurkat cells; assay: FACS on Jurkat cells
[9] = molecular target: T6, human CD3 on Jurkat cells; assay: FACS on Jurkat cells (CD3); remark: listed apart in the source
Procedure: as §2

Sequence of Human CD16a(F) (P08637 17-208 limits assumed): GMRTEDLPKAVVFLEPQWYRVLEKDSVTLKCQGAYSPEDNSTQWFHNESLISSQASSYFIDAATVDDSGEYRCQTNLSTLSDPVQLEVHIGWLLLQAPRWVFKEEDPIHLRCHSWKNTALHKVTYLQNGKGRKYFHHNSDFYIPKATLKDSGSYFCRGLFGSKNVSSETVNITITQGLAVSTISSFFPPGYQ
Sequence of Human CD16a(V) (P08637 17-208 F176V limits assumed): as the sequence (P08637 17-208 limits assumed) above, with F160V counted along it
T6 sequence (P07766 23-207): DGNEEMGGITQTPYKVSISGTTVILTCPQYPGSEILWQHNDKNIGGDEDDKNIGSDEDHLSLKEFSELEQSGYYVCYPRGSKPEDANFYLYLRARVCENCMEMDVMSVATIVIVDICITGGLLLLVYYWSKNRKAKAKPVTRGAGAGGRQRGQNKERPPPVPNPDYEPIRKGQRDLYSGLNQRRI
Sequence of CLDN18.2 of SNU620 cells (methionine to leucine at amino acid 149) (P56856 other isoform, or with tags, fused parts or gaps limits assumed): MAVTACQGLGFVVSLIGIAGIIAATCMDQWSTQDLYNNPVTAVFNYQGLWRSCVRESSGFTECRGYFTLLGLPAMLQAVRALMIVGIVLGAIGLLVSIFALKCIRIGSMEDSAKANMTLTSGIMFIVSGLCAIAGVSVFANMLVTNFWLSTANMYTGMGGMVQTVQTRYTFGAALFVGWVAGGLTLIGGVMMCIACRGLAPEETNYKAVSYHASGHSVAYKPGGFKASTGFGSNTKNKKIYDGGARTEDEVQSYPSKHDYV
T3 sequence (P12314 16-288 limits assumed): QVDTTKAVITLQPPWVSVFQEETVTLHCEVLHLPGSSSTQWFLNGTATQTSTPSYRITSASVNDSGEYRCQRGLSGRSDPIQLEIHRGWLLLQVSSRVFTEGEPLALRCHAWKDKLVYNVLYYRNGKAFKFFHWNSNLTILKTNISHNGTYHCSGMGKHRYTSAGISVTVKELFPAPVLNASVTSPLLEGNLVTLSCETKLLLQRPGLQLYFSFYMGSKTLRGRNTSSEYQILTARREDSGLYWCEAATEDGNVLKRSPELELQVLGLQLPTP

B1: Positive Control (hCLDN2 row) (antibody, human IgG1, kappa, V domains shown)
VH: VKLLQSGAALVPKPGDSMKMSCKASGYTFTHDIIHWVRQSHGKSLEWIGYINPYNGGTNYNEKFKTKATMTVDKPSSTAYLELTRVSSEASAIYYCATGSFDYWGQGVMVTVSS
VL: DVVLTQTPGSLSLAIGQSASISCKSSQSLLGTSGKTFLNWILQRPGQSPERLIYQVSKLYSEVPDRFSGSGSETEFTLKISRVEAEDLGVYYCWQGIHFPHTFGAGTKLELKR
notes: The sheet prints only 'Positive Control'; also called PR005080; Human Claudin-2 Antibody (PR005080)
binding result (human CLDN2): binds

B2: PR005397 (bispecific antibody, human IgG1, lambda, L234A L235A)
chain: EVQLVESGGGLVQPGGSLRLSCAASGFTFSSYWMHWVRQVPGKGLVWVSRISSTGSRTIYADSVKGRFTISRDNAKNTLYLQMNSLRAEDTAVYYCARGEDHDILTGYPIRGQGTTVTVSSGGGGSGGGGSGGGGSEVQLVESGGGLVQPGGSLRLSCAASGFTFSSYWMHWVRQVPGKGLVWVSRISSTGSRTIYADSVKGRFTISRDNAKNTLYLQMNSLRAEDTAVYYCARGEDHDILTGYPIRGQGTTVTVSSASEPKSSDKTHTCPPCPAPEAAGGPSVFLFPPKPKDTLMISRTPEVTCVVVDVSHEDPEVKFNWYVDGVEVHNAKTKPREEQYNSTYRVVSVLTVLHQDWLNGKEYKCKVSNKALPAPIEKTISKAKGQPREPQVCTLPPSREEMTKNQVSLSCAVKGFYPSDIAVEWESNGQPENNYKTTPPVLDSDGSFFLVSKLTVDKSRWQQGNVFSCSVMHEALHNHYTQKSLSLSPGK
heavy: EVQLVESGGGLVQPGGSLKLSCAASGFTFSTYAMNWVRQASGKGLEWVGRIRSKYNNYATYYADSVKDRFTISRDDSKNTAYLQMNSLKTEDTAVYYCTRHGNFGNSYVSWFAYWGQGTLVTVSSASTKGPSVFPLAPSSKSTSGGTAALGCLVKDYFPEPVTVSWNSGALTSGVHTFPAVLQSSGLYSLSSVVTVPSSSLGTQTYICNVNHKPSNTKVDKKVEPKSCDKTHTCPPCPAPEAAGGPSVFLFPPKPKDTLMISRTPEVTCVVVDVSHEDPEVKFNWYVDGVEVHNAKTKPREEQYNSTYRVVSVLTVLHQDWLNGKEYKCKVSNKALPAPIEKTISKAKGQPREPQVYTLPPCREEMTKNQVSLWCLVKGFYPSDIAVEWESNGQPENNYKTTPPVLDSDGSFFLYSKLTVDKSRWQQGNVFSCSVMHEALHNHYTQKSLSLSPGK
light: QAVVTQEPSLTVSPGGTVTLTCRSSTGAVTTSNYANWVQQKPGQAPRGLIGGTNKRAPWTPARFSGSLLGDKAALTLLGAQPEDEAEYFCALWYSNLWVFGGGTKLTVLGQPKAAPSVTLFPPSSEELQANKATLVCLISDFYPGAVTVAWKADSSPVKAGVETTTPSKQSNNKYAASSYLSLTPEQWKSHRSYSCQVTHEGSTVEKTVAPTECS
notes: structure 1; CD3 Fab from PR003886, CLDN18.2 VH from PR007246; LALA
TDCC, Titer EC50 (pM), SNU620 [1]: 31.6 pM | TDCC, Titer EC50 (pM), NUGC4_D8 (human CLDN18.2 [2]): 10 pM | EC50 (human CLDN18.2 [3]): 0.0275 µM | IC50 (human CLDN18.2 [4]): 0.0818 µM | Maximum inhibition rate (%) (human CLDN18.2 [4]): 98.4% | Kd (Human CD16a(V)): 1.8 µM | EC50 (human CLDN18.2 [5]): 0.0128 µM | Kd (Human CD64): 0.0506 µM | koff (Human CD64): 0.0438 s⁻¹ | kon (Human CD64): 866000 M⁻¹ s⁻¹ | binding result (Human CD32a(H)): no binding (tested: 10000-625 nM) | binding result (Human CD32b): no binding (tested: 10000-625 nM) | binding result (Human CD16a(F)): no binding (tested: 10000-625 nM) | Kd (Human FcRn): 0.182 µM | koff (Human FcRn): 0.0586 s⁻¹ | kon (Human FcRn): 322000 M⁻¹ s⁻¹ | binding result [6]: binds | IC50 (human CLDN18.2 [7]): 0.0675 µM | Maximum inhibition rate (%) (human CLDN18.2 [7]): 48%

B7: PR007079 (bispecific antibody, human IgG1, lambda)
chain: B2 chain with T54A, T190A, G281A
heavy: EVQLVESGGGLVQPGGSLKLSCAASGFTFSTYAMNWVRQASGKGLEWVGRIRSKYNNYATYYADSVKDRFTISRDDSKNTAYLQMNSLKTEDTAVYYCTRHGNFGNSYVSWFAYWGQGTLVTVSSASTKGPSVFPLAPSSKSTSGGTAALGCLVKDYFPEPVTVSWNSGALTSGVHTFPAVLQSSGLYSLSSVVTVPSSSLGTQTYICNVNHKPSNTKVDKKVEPKSCDKTHTCPPCPAPEAAGAPSVFLFPPKPKDTLMISRTPEVTCVVVDVSHEDPEVKFNWYVDGVEVHNAKTKPREEQYNSTYRVVSVLTVLHQDWLNGKEYKCKVSNKALPAPIEKTISKAKGQPREPQVYTLPPCREEMTKNQVSLWCLVKGFYPSDIAVEWESNGQPENNYKTTPPVLDSDGSFFLYSKLTVDKSRWQQGNVFSCSVMHEALHNHYTQKSLSLSPGK
light: B2 light
notes: structure 1; CD3 Fab from PR003886, CLDN18.2 VH from PR007243; AAA
EC50 (human CLDN18.2 [3]): 0.0732 µM | binding result [9]: binds

The remaining binders from weak to strong by EC50 (human CLDN18.2 [3]), led by results:

EC50 (human CLDN18.2 [3]): 0.0493 µM | binding result [9]: binds
B6: PR007081 (bispecific antibody, human IgG1, lambda)
chain: B2 chain with S52N, S53F, T54D, G55S, S188N, S189F, T190D, G191S, G281A
heavy: B7 heavy
light: B2 light
notes: structure 1; CD3 Fab from PR003886, CLDN18.2 VH from PR007242; AAA

EC50 (human CLDN18.2 [3]): 0.0467 µM | binding result [9]: binds
B5: PR007080 (bispecific antibody, human IgG1, lambda)
chain: B2 chain with S52D, T54R, S188D, T190R, G281A
heavy: B7 heavy
light: B2 light
notes: structure 1; CD3 Fab from PR003886, CLDN18.2 VH from PR007244; AAA

TDCC, Titer EC50 (pM), NUGC4_D8 (human CLDN18.2 [2]): 48.5 pM | EC50 [8]: 0.0406 µM | EC50 (human CLDN18.2 [3]): 0.0313 µM | Kd (Human CD16a(V)): 3 µM | Kd (Human CD64): 0.0539 µM | koff (Human CD64): 0.0471 s⁻¹ | kon (Human CD64): 874000 M⁻¹ s⁻¹ | binding result (Human CD32a(H)): no binding (tested: 10000-625 nM) | binding result (Human CD32b): no binding (tested: 10000-625 nM) | binding result (Human CD16a(F)): no binding (tested: 10000-625 nM) | Kd (Human FcRn): 0.21 µM | koff (Human FcRn): 0.0626 s⁻¹ | kon (Human FcRn): 298000 M⁻¹ s⁻¹
B4: PR006023 (bispecific antibody, human IgG1, lambda, L234A L235A)
chain: B2 chain
heavy: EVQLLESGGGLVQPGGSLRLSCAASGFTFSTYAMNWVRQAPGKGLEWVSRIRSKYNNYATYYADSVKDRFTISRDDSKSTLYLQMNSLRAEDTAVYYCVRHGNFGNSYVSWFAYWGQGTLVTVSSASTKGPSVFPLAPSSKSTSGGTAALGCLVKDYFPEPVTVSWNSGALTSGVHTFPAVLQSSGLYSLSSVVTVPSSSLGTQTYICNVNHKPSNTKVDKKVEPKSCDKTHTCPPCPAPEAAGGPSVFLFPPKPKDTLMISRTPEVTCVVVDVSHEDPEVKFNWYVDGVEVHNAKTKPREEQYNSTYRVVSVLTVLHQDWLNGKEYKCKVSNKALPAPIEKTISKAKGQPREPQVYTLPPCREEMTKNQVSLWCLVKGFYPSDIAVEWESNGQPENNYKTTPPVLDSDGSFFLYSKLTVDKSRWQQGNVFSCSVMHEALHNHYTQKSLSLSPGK
light: B2 light
notes: structure 1; CD3 Fab from PR001848, CLDN18.2 VH from PR007246; LALA

TDCC, Titer EC50 (pM), SNU620 [1]: 38.5 pM | TDCC, Titer EC50 (pM), NUGC4_D8 (human CLDN18.2 [2]): 11 pM | EC50 [8]: 0.0859 µM | EC50 (human CLDN18.2 [3]): 0.0205 µM | IC50 (human CLDN18.2 [4]): 0.122 µM | Maximum inhibition rate (%) (human CLDN18.2 [4]): 96.2% | Kd (Human CD16a(V)): 2.3 µM | EC50 (human CLDN18.2 [5]): 0.016 µM | Kd (Human CD64): 0.0471 µM | koff (Human CD64): 0.0417 s⁻¹ | kon (Human CD64): 885000 M⁻¹ s⁻¹ | binding result (Human CD32a(H)): no binding (tested: 10000-625 nM) | binding result (Human CD32b): no binding (tested: 10000-625 nM) | binding result (Human CD16a(F)): no binding (tested: 10000-625 nM) | Kd (Human FcRn): 0.215 µM | koff (Human FcRn): 0.0644 s⁻¹ | kon (Human FcRn): 300000 M⁻¹ s⁻¹ | IC50 (human CLDN18.2 [7]): 0.0744 µM | Maximum inhibition rate (%) (human CLDN18.2 [7]): 48%
B8: PR005411 (bispecific antibody, human IgG1, lambda, L234A L235A)
chain: B2 chain with T54D, G55A, T190D, G191A
heavy: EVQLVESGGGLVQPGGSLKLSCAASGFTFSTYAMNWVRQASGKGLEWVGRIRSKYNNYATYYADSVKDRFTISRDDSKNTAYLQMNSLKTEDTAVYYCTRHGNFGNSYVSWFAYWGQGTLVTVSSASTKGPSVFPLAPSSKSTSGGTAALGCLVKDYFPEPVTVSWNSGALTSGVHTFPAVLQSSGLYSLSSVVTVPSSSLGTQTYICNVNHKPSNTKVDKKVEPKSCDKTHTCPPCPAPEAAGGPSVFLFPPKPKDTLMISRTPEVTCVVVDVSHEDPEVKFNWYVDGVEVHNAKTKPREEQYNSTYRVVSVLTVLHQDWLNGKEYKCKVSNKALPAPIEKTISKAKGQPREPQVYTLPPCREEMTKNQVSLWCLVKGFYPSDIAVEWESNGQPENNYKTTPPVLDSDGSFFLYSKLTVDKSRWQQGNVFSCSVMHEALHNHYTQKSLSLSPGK
light: B2 light
notes: structure 1; CD3 Fab from PR003886, CLDN18.2 VH from PR007245; LALA

TDCC, Titer EC50 (pM), SNU620 [1]: 18.3 pM | TDCC, Titer EC50 (pM), NUGC4_D8 (human CLDN18.2 [2]): 9 pM | EC50 (human CLDN18.2 [3]): 0.0194 µM | EC50 (human CLDN18.2 [5]): 0.0204 µM | binding result [6]: binds
B3: PR005398 (bispecific antibody, human IgG1, lambda, L234A L235A)
chain: B2 chain with S52N, S53F, T54D, G55S, S188N, S189F, T190D, G191S
heavy: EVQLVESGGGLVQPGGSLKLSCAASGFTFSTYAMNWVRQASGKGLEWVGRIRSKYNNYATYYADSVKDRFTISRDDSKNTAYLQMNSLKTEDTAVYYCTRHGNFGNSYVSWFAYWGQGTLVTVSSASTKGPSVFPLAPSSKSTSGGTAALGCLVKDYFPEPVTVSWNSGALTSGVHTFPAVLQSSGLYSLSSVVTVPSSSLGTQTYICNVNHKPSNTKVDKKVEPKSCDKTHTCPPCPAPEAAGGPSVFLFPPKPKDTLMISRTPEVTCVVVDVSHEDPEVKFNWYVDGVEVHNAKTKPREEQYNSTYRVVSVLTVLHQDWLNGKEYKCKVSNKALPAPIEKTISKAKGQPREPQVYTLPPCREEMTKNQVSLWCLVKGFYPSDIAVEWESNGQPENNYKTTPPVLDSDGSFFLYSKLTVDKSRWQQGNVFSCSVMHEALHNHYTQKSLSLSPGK
light: B2 light
notes: structure 1; CD3 Fab from PR003886, CLDN18.2 VH from PR007242; LALA
